These results are taken from patent US20050025760A1 (KEIO UNIVERSITY, published 2005).

Residue numbers refer to the chain shown, from its start.

One test deals with T1, Dsg3-M6 (human, UniProt P32926 50-615, A83S; Q84M).
T1 construct: extracellular domain; also called point-mutated human Dsg3 molecule M6; not shown: His tag of vector pEVmod-His
T1 sequence (looked up): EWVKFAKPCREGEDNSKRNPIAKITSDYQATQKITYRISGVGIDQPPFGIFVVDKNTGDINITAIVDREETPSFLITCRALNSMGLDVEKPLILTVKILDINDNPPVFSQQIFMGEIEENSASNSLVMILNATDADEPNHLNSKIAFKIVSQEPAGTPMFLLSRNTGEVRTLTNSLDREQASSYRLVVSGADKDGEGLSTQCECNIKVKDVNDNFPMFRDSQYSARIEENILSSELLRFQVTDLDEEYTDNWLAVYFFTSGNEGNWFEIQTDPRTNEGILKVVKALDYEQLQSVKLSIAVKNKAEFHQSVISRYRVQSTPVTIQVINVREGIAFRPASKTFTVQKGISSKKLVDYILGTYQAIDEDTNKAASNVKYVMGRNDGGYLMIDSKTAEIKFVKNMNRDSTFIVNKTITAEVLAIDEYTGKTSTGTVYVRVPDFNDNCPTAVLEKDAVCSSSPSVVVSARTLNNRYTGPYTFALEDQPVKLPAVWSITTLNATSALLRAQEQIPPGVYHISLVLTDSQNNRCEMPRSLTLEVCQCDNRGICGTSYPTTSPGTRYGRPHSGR
Kind of test: immunoprecipitation of point-mutated molecules (FIG. 5).

Another test deals with T2, Dsg3-M3 (human, UniProt P32926 50-615, V53I; D54N; K55Q; N56K).
T2 construct: extracellular domain; also called point-mutated human Dsg3 molecule M3; not shown: His tag of vector pEVmod-His
T2 sequence (looked up): T1 sequence (looked up) with V53I, D54N, K55Q, N56K, S83A, M84Q
The test is described as above.

Test [1] concerns the target T3, inactivated Dsg3 protein having a pro-sequence (mouse, UniProt O35902 24-617, limits assumed).
T3 construct: the sentence on immunoblotting itself says only 'Dsg3'; also called protein with large molecular weight; not shown: His tag
T3 sequence (looked up): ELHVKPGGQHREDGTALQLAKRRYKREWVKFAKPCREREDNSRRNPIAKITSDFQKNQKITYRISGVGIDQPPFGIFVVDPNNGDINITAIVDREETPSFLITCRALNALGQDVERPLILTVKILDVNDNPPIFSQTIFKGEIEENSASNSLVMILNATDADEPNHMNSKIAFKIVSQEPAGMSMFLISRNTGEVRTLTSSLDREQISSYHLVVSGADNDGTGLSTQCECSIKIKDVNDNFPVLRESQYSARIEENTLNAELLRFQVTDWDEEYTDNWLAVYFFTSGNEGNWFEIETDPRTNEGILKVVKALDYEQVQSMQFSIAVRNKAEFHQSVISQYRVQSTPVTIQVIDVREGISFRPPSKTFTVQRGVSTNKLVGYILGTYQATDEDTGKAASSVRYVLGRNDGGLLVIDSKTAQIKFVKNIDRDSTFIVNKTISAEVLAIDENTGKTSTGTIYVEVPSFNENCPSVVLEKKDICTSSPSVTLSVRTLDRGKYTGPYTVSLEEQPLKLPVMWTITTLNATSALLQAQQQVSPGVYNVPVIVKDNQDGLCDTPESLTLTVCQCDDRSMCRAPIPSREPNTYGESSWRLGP
Kind of test: immunoprecipitation and immunoblotting of recombinant Dsg3 (FIG. 7b). As to the method:
Then 10 μl of protein G (Protein G sepharose 4 fast flow: Amersham Pharmacia Biotech, Buckinghamshire, England) was added and reacted overnight at […]. Centrifugation was conducted after the reaction, and 50 μl of SDS was added to the precipitate and boiled for 2 minutes. Each sample was subjected to electrophoresis with a 7.5% uniform gel plate for electrophoresis (multigel 7.5: Daiichi Pure Chemicals, Tokyo, Japan), transcribed to PVDF membrane, then blocked. Further, 100-fold diluted anti-6X histidine antibody (R&D systems, Inc. Minn., USA) was reacted for 1 hour at room temperature, washed (3 times) in TBS (Tris buffered saline), then 1000-fold diluted alkaline phosphatase-goat anti-mouse IgG (Zymed, San Francisco, Calif., USA) was reacted for 1 hour at room temperature, washed (3 times) in TBS, then developed.
To characterize the epitopes of monoclonal antibodes such as AK23 and the like, it was first determined whether the binding to Dsg3 of the antibodies is calcium-dependent or not. Recombinant mouse Dsg3-His was treated with or without EDTA, and then subjected to immunoprecipitation with the AK antibodies. EDTA treatment abolished the reactivity of AK19 and AK23 antibodies, but not the reactivity of the other AK antibodies (Table 3, FIG. 7a). […]

B1: anti-Dsg3 monoclonal antibody AK23 (antibody, mouse IgG1, V domains shown)
VH: QVQLQQSGTELVKPGASVKLSCKSSGYTFTSYWINWVKQRPGQGLEWIGNINPSNGGINYNEKFKSKATLTVDKSSSTAYMQLKSLTSEDSAVYYCARGGYDGYPWGQGTTVTVS
VL: DIQMTQSPKFLLVSAGDRVTITCKASQSVSYDVAWYQQKPGQSPKLLISYASNRYTGVPDRFTGSGYGSDFTFTISTVQTEDLAVYFCQQDYSSPWTFGGGTKLELKR
notes: Mouse IgG1 kappa hybridoma antibody
As to B1, the binding result with Dsg3-M6 is recorded as “binds”; with Dsg3-M3, “binds”; in test [1], “no binding”.
